Columns and labels:
[1] = target: nedd4_human NEDD4 (UniProt P46934)
[2] = target: T1, rn123_human RNF123 (UniProt Q5XPI4)
T1 sequence: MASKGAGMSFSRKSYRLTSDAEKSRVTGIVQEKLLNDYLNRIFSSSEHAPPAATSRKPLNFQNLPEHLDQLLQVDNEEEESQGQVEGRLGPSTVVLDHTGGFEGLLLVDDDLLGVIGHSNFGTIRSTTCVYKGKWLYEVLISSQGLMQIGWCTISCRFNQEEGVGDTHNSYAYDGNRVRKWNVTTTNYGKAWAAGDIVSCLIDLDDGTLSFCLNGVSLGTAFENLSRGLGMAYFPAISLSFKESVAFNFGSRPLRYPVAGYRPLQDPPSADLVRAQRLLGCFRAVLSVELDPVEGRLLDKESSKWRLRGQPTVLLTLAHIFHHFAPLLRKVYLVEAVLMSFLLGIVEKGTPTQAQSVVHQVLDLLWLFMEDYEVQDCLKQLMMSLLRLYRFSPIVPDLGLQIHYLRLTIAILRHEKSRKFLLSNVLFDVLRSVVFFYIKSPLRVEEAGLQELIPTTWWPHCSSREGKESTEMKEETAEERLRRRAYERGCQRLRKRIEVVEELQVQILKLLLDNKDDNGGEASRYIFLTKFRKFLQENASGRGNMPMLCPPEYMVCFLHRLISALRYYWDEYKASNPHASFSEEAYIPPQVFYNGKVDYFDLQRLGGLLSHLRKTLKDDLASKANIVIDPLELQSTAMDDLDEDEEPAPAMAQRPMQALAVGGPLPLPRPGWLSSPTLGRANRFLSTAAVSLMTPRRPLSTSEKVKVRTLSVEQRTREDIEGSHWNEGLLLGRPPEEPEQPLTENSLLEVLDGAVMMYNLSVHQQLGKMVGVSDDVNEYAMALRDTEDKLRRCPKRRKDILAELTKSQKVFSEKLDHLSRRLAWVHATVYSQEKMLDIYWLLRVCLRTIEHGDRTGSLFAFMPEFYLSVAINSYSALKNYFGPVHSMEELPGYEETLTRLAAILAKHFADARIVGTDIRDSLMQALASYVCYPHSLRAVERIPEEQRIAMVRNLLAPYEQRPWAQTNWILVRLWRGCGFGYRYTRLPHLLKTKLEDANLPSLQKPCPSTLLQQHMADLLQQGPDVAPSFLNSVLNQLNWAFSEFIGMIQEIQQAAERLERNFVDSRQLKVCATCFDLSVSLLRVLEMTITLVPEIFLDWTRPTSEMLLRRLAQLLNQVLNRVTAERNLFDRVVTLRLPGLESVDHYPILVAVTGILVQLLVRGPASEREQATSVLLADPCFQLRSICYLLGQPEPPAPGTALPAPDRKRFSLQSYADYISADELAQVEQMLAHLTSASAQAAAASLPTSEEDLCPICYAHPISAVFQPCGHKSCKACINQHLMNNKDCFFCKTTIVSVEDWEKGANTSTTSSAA

[3] = target: T2, tcpr2_human TECPR2 (UniProt O15040)
T2 sequence: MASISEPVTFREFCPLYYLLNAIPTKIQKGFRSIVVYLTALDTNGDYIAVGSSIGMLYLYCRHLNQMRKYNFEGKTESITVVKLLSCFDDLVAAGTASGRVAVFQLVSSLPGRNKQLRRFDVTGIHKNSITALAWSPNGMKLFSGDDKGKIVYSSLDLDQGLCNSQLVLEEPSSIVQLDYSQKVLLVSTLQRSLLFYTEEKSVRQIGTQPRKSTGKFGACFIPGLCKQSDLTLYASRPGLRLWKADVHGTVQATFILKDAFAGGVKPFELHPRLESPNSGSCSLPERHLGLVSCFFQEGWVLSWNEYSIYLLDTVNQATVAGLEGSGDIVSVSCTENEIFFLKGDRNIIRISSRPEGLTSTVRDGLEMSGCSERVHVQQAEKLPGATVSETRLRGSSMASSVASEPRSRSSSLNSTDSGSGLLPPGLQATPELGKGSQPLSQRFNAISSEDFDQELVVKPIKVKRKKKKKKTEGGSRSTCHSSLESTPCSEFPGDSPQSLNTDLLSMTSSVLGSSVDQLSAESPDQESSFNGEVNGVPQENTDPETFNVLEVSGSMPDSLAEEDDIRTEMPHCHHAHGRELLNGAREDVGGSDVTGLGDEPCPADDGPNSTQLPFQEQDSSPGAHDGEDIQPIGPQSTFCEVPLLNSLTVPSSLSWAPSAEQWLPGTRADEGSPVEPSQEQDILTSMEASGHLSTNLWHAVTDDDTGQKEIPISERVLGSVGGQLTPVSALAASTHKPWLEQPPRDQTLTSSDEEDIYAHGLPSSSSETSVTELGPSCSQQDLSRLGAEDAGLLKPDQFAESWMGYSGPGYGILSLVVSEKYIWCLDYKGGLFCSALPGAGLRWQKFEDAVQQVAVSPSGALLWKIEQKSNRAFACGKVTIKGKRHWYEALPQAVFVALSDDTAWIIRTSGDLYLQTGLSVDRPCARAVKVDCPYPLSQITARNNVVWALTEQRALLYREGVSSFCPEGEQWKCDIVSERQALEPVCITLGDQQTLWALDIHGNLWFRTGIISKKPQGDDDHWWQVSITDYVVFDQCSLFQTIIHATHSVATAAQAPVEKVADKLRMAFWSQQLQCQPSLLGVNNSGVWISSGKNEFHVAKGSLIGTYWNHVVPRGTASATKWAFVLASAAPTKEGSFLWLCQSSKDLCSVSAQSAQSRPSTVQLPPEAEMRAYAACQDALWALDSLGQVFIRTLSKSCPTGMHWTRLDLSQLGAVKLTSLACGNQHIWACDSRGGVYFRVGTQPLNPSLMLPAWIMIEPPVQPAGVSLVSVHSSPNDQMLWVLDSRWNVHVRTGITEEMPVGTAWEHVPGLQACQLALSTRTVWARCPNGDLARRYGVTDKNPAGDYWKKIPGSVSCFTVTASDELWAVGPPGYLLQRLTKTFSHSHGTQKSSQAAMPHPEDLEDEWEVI

[4] = target: T3, nips2_human NIPSNAP2 (UniProt O75323)
T3 sequence: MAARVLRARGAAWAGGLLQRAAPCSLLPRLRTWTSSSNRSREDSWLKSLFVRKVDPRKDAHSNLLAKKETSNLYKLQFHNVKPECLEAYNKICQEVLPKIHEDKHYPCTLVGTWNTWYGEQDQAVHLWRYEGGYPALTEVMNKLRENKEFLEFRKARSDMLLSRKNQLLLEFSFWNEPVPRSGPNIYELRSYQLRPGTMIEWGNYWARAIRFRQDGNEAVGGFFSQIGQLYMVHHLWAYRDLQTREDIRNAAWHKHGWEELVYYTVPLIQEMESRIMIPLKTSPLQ

[5] = target: atg2a_human ATG2A (UniProt Q2TAZ0)
Sequence of atg2a_human ATG2A (Q2TAZ0 whole entry): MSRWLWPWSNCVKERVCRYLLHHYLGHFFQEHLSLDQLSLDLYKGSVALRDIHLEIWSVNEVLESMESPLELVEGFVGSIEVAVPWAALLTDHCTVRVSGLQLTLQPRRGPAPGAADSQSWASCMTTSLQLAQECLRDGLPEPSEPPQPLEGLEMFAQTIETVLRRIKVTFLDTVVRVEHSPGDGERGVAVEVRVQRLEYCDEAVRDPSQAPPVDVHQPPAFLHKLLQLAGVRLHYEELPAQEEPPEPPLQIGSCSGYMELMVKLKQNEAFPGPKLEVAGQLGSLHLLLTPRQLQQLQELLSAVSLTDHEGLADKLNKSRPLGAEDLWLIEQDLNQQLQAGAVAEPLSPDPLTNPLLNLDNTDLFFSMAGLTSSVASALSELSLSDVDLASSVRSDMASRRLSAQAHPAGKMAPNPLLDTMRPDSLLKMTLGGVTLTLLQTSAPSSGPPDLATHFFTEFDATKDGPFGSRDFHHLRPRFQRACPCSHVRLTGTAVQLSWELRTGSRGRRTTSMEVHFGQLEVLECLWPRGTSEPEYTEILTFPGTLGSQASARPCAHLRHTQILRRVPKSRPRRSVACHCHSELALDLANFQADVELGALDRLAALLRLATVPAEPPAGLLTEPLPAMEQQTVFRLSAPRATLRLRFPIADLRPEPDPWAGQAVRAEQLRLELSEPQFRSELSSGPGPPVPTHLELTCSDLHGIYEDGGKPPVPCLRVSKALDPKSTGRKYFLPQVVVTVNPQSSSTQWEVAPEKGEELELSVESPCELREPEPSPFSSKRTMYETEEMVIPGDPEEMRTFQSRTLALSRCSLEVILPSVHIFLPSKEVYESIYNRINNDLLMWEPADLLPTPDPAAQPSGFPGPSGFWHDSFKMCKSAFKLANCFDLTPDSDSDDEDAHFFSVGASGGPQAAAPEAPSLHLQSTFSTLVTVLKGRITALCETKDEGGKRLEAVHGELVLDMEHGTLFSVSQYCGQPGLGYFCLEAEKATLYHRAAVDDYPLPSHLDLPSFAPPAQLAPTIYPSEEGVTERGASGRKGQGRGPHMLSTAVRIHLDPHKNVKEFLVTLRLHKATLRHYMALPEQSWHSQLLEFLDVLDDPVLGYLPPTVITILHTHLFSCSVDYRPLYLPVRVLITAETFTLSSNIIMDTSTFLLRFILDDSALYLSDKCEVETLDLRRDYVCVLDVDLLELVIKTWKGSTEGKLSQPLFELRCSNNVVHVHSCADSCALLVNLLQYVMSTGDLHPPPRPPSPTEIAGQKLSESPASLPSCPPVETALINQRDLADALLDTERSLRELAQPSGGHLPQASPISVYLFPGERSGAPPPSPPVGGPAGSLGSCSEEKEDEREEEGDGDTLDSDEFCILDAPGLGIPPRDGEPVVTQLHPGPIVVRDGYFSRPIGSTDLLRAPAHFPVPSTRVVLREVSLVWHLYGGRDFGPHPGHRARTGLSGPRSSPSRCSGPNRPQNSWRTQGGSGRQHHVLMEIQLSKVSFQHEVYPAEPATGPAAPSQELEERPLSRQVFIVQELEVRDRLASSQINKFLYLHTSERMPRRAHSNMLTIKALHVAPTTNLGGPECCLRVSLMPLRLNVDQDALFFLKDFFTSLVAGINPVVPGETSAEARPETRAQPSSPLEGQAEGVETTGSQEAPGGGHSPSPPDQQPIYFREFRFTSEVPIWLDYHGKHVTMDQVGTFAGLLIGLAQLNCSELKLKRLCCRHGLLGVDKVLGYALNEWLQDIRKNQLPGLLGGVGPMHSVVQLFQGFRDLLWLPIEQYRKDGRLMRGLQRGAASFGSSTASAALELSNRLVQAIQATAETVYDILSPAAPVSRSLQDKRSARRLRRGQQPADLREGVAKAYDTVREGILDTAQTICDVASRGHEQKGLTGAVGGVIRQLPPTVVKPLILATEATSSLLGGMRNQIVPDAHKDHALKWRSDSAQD

Sequence of nedd4_human NEDD4 (P46934 whole entry): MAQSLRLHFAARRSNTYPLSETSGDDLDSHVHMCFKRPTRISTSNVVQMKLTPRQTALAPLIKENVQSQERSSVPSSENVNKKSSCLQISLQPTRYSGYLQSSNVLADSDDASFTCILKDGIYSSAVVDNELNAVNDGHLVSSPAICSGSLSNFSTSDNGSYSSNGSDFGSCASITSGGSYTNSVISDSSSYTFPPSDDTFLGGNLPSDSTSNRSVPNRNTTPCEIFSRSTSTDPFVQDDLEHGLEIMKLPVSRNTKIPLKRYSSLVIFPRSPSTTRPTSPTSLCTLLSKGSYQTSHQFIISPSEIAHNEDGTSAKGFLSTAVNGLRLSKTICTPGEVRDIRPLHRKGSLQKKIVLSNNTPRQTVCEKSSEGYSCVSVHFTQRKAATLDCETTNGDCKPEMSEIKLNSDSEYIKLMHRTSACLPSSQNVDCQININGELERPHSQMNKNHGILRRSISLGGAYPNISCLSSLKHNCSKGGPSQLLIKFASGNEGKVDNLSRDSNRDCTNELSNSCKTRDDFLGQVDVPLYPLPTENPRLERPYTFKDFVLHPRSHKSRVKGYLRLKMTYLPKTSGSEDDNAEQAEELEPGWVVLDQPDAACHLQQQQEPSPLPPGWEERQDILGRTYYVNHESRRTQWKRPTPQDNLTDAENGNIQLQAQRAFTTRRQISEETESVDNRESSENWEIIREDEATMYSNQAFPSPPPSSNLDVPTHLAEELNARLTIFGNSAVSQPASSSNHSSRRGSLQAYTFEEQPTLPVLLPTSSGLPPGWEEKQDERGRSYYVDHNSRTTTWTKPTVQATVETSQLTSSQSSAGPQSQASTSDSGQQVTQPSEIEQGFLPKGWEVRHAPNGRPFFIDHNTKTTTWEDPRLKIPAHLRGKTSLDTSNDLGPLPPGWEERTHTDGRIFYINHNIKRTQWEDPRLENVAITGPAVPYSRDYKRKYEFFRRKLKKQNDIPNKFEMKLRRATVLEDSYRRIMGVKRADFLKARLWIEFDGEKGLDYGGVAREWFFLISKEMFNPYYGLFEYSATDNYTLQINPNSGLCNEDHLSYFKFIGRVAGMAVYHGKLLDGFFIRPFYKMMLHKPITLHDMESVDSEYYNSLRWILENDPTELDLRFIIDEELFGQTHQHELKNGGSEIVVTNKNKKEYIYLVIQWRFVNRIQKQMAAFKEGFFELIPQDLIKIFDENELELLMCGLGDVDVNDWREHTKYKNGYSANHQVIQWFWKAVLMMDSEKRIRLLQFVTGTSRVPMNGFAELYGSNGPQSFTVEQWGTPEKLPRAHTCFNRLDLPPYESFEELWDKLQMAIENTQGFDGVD

effect of a mutation on the interaction [1] | effect of a mutation on the interaction [2] | effect of a mutation on the interaction [3] | effect of a mutation on the interaction [4] | effect of a mutation on the interaction [5] | Substance
decreasing interaction | increasing interaction | decreasing interaction | increasing interaction | increasing interaction | Microtubule-associated protein 1 light chain 3 beta (Homo sapiens) (from UniProt Q9GZQ8) F52A;L53A
decreasing interaction | decreasing interaction | disrupting interaction | decreasing interaction | decreasing interaction | Microtubule-associated protein 1 light chain 3 beta (Homo sapiens) (from UniProt Q9GZQ8) R69A

From IntAct's records for PubMed 20562859
